Data on seven molecules can be found in patent US10562935B2, “Stapled peptides and uses thereof” (London Health Sciences Centre Research Inc., priority 2015, dated 2020).

Where a SMILES comes first, the peptide text is derived from it. Bridges are numbered along the chain shown (N, C = ends).

Data set [1] can be described thus: circular dichroism. The settings on record: pH ns, 0.5 mM. A general note: Circular dichroism is the unequal absorption of left and right circularly polarised light.
A short description of data set [2]: Direct HA-binding ELISA of biotinylated peptides on HA coated plates (Example 4). Also on record: key to HA binding: absorbance (color) read at 450 nm. How it is done: Each of these peptides was biotinylated at its amino-terminus, and an AEEA spacer was included to separate the peptide sequence from the biotin molecule.
HA coated plates were purchased (ECHELON). Peptides were dissolved in 2 mM PBS to constant molarity, aliquoted and stored at −20° C. until used in assays. 7 kDa biotin-labeled RHAMM (SEQ ID NO: 1) was synthesized and used as a positive control in these assays. Biotin labeled peptides were added to the HA coated wells (n=3 replicates/peptide) at either 0.8 or 0.08 μM and then incubated with shaking overnight at 4° C. Wells were washed free of excess unbound peptides using 200 μl PBS (4 times). 100 μl of Streptavidin-HRP was then added to each well and the plate was incubated at room temperature for 1 hr. The plate was then washed with 200 μl PBS/well 4 times and TMB Liquid Substrate System for ELISA (Sigma) was added to each well, incubated for 5-10 min at room temperature and color read at 450 nm Plate Reader (BioTek, SYNERGY H4, Hybrid Reader).
Direct HA-binding results for the biotinylated equivalents of compounds 132 and 150-161 are show in FIG. 39, and results for compounds 265-268 and 275-278 are shown in FIG. 40.
For orientation: In an ELISA, binding on a coated surface is turned into a signal by an enzyme label.

The nature of data set [3]: Circular dichroism (CD) spectroscopy of linear and stapled peptides in water or 40% TFE/water (Example 3). It is filed as physicochemical. The settings on record: for [0]208 mean residue ellipticity: λ = 208 nm; for [0]222 mean residue ellipticity: λ = 222 nm. How it is done:
CD spectra were obtained on a Jasco J-810 spectropolarimeter and recorded in the range of 180-260 nm. Peptide solutions were prepared with a 0.1M phosphate buffer solution to a concentration of 0.5 mM. The measurements were performed in quartz cuvettes with a path length of 1 mm and a scanning speed of 10-50 nm/min. Five individual data points were averaged by the instrument in order to obtain the reported CD spectrum. The measurements were carried out at 20° C. A blank solution of 0.1M phosphate buffer solution was run before every measurement in order to baseline correct for any UV-interference observed from the buffer.
CD data for the 14- and 15-mer peptides containing HABD2 (VSKLRSQLVKRKQN, SEQ ID NO: 2) and HABD1 (NLKQKIKHVVKLKDE, SEQ ID NO: 4) and cyclized derivatives thereof in water or 40% TFE/water are provided below in Tables 8 (water) and 9 (40% TFE/water). Tables 8 and 9 provide the mean residue ellipicity ([θ] deg cm^2 dmol^−1) at λ=222 and 208 nm for each peptide and ratios of ellipticities at 222/208. Each of the peptides was acetylated at its amino terminus and amidated at its carboxy terminus.
CD data for linear peptides having the sequences […] (SEQ ID NO: 5) and […] (SEQ ID NO: 6) and cyclized derivatives thereof in water or 40% TFE/water are provided below in Tables 12 (water) and 13 (40% TFE/water). Tables 12 and 13 provide the mean residue ellipicity ([0] deg cm^2 dmol^−1) at λ=222 and 208 nm for each peptide and ratios of ellipticities at 222/208. Each of the peptides was acetylated at its amino terminus and amidated at its carboxy terminus.
Circular Dichroism (CD) spectroscopy is a tool that is used to study the secondary structure characteristics of a compound. Peptides and proteins can fold into organized structures, such as alpha helices and beta sheets, which are the result of complex hydrogen bonding and other interactions between amino acid side chains, as well as adopt a random coil formation, which lacks much of the organization of the other two structures. The CD spectrum of an alpha helix is characterized by two local minima at 208 nm and 222 nm. The ratio of the values of the molar ellipticities at these wavelengths ([θ]222/[θ]208) is a strong indication of the relative helicity of a compound; a compound is more helical when the ratio of these two values approaches 1.0. Synthetic constraints introduced to the peptide backbone can force a peptide chain to increase its helical character. These constraints can be introduced by staples, of varying types, which allow cyclization of the peptide backbone to take place.

A short description of data set [4]: Function blocking score: total percent inhibition over migration, invasion, inflammation and fibrosis assays divided by number of assays. Type of data set: cell-based. The settings on record: total percent inhibition for all assays tested divided by number of assays. How it is done:
As documented in the Examples hereinabove, a variety of cyclized peptides were produced that contained the HA-binding domain 1 (HABD1), HA-binding domain 2 (HABD2), or both HABD1 and HABD2. These peptides were evaluated for helicity, direct HA binding and in a number of cell-based bioassays (effects on migration, invasion, NFkB activation, and TGFβ1 production) that are relevant to inflammation and fibrosis. The relationships amongst helicity, HA-binding, and biofunction were evaluated. Peptides were divided into three groups for this analysis: (1) peptides containing HABD1 (“HABD1”); (2) peptides containing HABD2 (“HABD2”); and peptides containing most or all of HABD1 and all of HABD2 (“HABD1+HABD2”). R^2 values were calculated to quantify the relationships between helicity, HA-binding, and biofunction were evaluated.
The results of this analysis for the HABD1 peptides are shown below in Tables 15 and 16. Table 16 provides a function blocking scores for each of the tested peptides and provides R^2 values showing the relationship between HA binding and helicity (“HA binding vs. CD”), HA binding and function-blocking score (“HA binding vs. FBS”) and helicity vs. function-blocking score (“CD vs. FBS”). The same type of summaries are provided for the HABD2 peptides in Tables 17 and 18 below, and for the HABD1+HABD2 peptides in Tables 19 and 20 below.
Function blocking scores were calculated as the total percent inhibition achieved by the peptide for all assays the peptides were tested in, divided by the number of assays. Assays included migration, invasion, inflammation and fibrosis assays. Not all peptides were tested all of the assays. All peptides were included for deriving R^2 values (Pearson's formula).

In data set [5] the test system is RHAMM-overexpressing (LR21) cells. Put plainly: Cell invasion assay (Boyden chamber with MATRIGEL, Chemicon ECM555). The settings on record: % inhibition relative to positive control; 10 ng/mL of peptide. It is filed as cell-based. Here is the method:
Compounds 132, 133, 135, 150-153, 156, 265-269, and 275-278 were evaluated for their ability to inhibit cellular invasion. Invasion assays were performed using Chemicon Assay Kits ECM555 (Invasion); Billerica, Mass., USA) according to the manufacturer's protocol. Invasion assays are performed in an identical manner as the migration assays described above in Example 5, except that cells are required to invade through a layer of extracellular matrix (MATRIGEL) coating the filter that separates the upper and lower Boyden chambers. Briefly, sub-confluent cultures of RHAMM-overexpressing (LR21) cells were serum starved overnight before plating 7.5×10^4 cells in the upper chamber of a Boyden chamber either in the presence or absence of 10 ng/mL of peptide. 30% fetal bovine serum in DMEM was used as the chemo-attractant in the lower chamber. The number of cells that had crossed the membrane after 20 hours was assessed using the CYQUANT® GR Dye and lysis buffer solution provided in the kit. Fluorescence was measured with a fluorescent plate reader using 480/520 nm filter set.
Values the mean and SDM of n=3 replicates. *p<0.05, **p<0.01, ***p<0.001 All statistics compared to 30% serum control. In FIG. 49, where bars are labeled with two compound numbers (“152/135”) this means that the data were pooled for the indicated compound, i.e., for the non-acetylated and acetylated versions of the indicated peptide.

The test system is the same in data set [6]. Put plainly: Cell migration assay (Boyden chamber, Chemicon ECM510). It is filed as cell-based. The settings on record: % inhibition relative to positive control. Here is the method: Compounds 132, 133, 150-152, 156-161, 265-269, 275, 277, and 278 were evaluated for their ability to inhibit cell migration. Cell migration assays were performed using Chemicon Assay Kits (ECM510 (Migration); Billerica, Mass., USA) according to the manufacturer's protocol. Briefly, sub-confluent cultures of RHAMM-overexpressing (LR21) cells were serum starved overnight. 7.5×10^4 cells were then plated in the upper chamber of a Boyden chamber. either in the presence or absence of 10 ng/mL of peptide. 30% fetal bovine serum in DMEM was used as the chemo-attractant in the lower chamber. The number of cells that had crossed the membrane after 20 hours was assessed using the CYQUANT GR Dye and lysis buffer solution provided in the kit. Fluorescence was measured with a fluorescent plate reader using a 480/520 nm filter set.
Values are the mean and SDM of n=3 replicates. *p<0.05, **p<0.01. All statistics compare to 30% serum control. In FIGS. 41-43, where bars are labeled with two compound numbers (“133/150” and “135/152”) this means that the data were pooled for the indicated compounds, i.e., for the non-acetylated and acetylated versions of the indicated peptides.

Where [7] appears, read: water (methods paragraph says 0.1 M phosphate; tables say water), 20 °C.
[8] abbreviates: as repeated in tables 16, 18, 20.

The molecule `CC(=O)N[C@H](C(=O)N[C@@H](CO)C(=O)N[C@@H](CCCCN)C(=O)N[C@@H](CC(C)C)C(=O)N[C@H]1CCC(=O)NCCCC[C@@H](C(=O)N[C@@H](CCCCN)C(=O)N[C@@H](CCCNC(=N)N)C(=O)N[C@@H](CCCCN)C(=O)N[C@@H](CCC(N)=O)C(=O)N[C@@H](CC(N)=O)C(N)=O)NC(=O)[C@H](CC(C)C)NC(=O)[C@H](CCC(N)=O)NC(=O)[C@H](CO)NC1=O)C(C)C` (Ac-VSKLESQLKKRKQN-NH2; lactam 5-9) showed a helicity in data set [1] (setting [7]) of -6450 MRE222.

`CC(=O)N[C@H](C(=O)N[C@@H](CO)C(=O)N[C@@H](CCCCN)C(=O)N[C@@H](CC(C)C)C(=O)N[C@@H](CCCNC(=N)N)C(=O)N[C@H]1CCCCNC(=O)CC[C@@H](C(=O)N[C@@H](CCCNC(=N)N)C(=O)N[C@@H](CCCCN)C(=O)N[C@@H](CCC(N)=O)C(=O)N[C@@H](CC(N)=O)C(N)=O)NC(=O)[C@H](C(C)C)NC(=O)[C@H](CC(C)C)NC(=O)[C@H](CCC(N)=O)NC1=O)C(C)C` (Ac-VSKLRKQLVERKQN-NH2; lactam 6-10) showed a helicity in data set [1] (setting [7]) of -1980 MRE222.

Regarding `CC[C@H](C)[C@H](NC(=O)[C@H](CCCCN)NC(=O)[C@H](CCC(N)=O)NC(=O)[C@H](CCCCN)NC(=O)[C@H](CC(C)C)NC(=O)[C@H](CC(N)=O)NC(C)=O)C(=O)N[C@@H](CCCCN)C(=O)N[C@H]1CCC(=O)NCCCC[C@@H](C(=O)N[C@@H](CCCCN)C(=O)N[C@@H](CC(=O)O)C(=O)N[C@@H](CCC(=O)O)C(N)=O)NC(=O)[C@H](CCCCN)NC(=O)[C@H](C(C)C)NC(=O)[C@H](C(C)C)NC1=O` (Ac-NLKQKIKEVVKKKDE-NH2; lactam 8-12), the helicity in data set [1] (setting [7]) was -1800 MRE222.

`CC(=O)N[C@H](C(=O)N[C@@H](CO)C(=O)N[C@@H](CCCCN)C(=O)N[C@H]1CCC(=O)NCCCC[C@@H](C(=O)N[C@H](C(=O)N[C@@H](CCCCN)C(=O)N[C@@H](CCCNC(=N)N)C(=O)N[C@@H](CCCCN)C(=O)N[C@@H](CCC(N)=O)C(=O)N[C@@H](CC(N)=O)C(N)=O)C(C)C)NC(=O)[C@H](CCC(N)=O)NC(=O)[C@H](CO)NC(=O)[C@H](CCCNC(=N)N)NC1=O)C(C)C` (Ac-VSKERSQKVKRKQN-NH2; lactam 4-8) registered a helicity in data set [1] (setting [7]) of -3350 MRE222.

Regarding `CC(=O)N[C@@H](CC(N)=O)C(=O)N[C@@H](CC(C)C)C(=O)N[C@@H](CCCCN)C(=O)N[C@@H](CCC(N)=O)C(=O)N[C@@H](CCCCN)C(=O)N[C@H]1CCC(=O)NCCCC[C@@H](C(=O)N[C@@H](CCCCN)C(=O)N[C@@H](CC(C)C)C(=O)N[C@@H](CCCCN)C(=O)N[C@@H](CC(=O)O)C(=O)N[C@@H](CCC(=O)O)C(N)=O)NC(=O)[C@H](C(C)C)NC(=O)[C@H](Cc2c[nH]cn2)NC(=O)[C@H](CCCCN)NC1=O` (Ac-NLKQKEKHVKKLKDE-NH2; lactam 6-10), in data set [1] (setting [7]), the helicity was -2610 MRE222.

In data set [1] (Milli-Q water, ns °C), `CC(C)C[C@@H]1NC(=O)[C@H](CCC(N)=O)NC(=O)[C@H](CO)NC(=O)[C@@H](NC(=O)[C@H](CC(C)C)NC(=O)[C@H](CCCCN)NC(=O)[C@H](CO)NC(=O)[C@@H](N)C(C)C)CCC(=O)NCCCC[C@@H](C(=O)N[C@@H](CCCCN)C(=O)N[C@@H](CCCNC(=N)N)C(=O)N[C@@H](CCCCN)C(=O)N[C@@H](CCC(N)=O)C(=O)N[C@@H](CC(N)=O)C(N)=O)NC1=O` (H-VSKLESQLKKRKQN-NH2; lactam 5-9) returned a helicity of -4400 MRE222.

With Ac-NLKQKIKHVVKLKDE-NH2 [Compound 156], the HA binding in data set [2] (setting [8]) is on record as 0.01. In addition, the “HA direct binding (OD)” value in data set [2] (optical density, summary tables 15, 17, 19) was found to be 0.01 OD. Besides, the “[θ]222/[θ]208 ratio of ellipticities” value in data set [3] ([θ]222/[θ]208 ratio in water, summary tables 15, 17, 19) was 0.11. Further, in data set [3] (setting [8]), the “[θ]222/[θ]208 ratio of ellipticities” value was determined as 0.11. In data set [3] (in 40% TFE/water), the “[0]222/[0]208 ratio of ellipticities” value was 0.74, the “[0]208 mean residue ellipticity” value is -1.03E+04 deg cm^2 dmol^−1 and the “[0]222 mean residue ellipticity” value is -8.57E+03 deg cm^2 dmol^−1. In data set [3] (in water), the “[0]222/[0]208 ratio of ellipticities” value worked out at 0.11, the “alpha-helical character by CD (in words)” value is recorded as “nominal alpha helical character in water”, the “[0]208 mean residue ellipticity” value is given as -9.00E+02 deg cm^2 dmol^−1 and the “[0]222 mean residue ellipticity” value was -1.01E+02 deg cm^2 dmol^−1. Moreover, in data set [4], the “Function blocking score (FBS)” value came out at 0. In data set [5], the “Invasion (% inhib.)” value was found to be 0 % inhib. For the same molecule, the “Migration (% inhib.)” value in data set [6] was found to be 0 % inhib.
